Experimental data published in PMC10989797, “Mechanistic insights into the key marine dimethylsulfoniopropionate synthesis enzyme DsyB/DSYB” (mLife, 2022).
Blank lines part the entries; values can stand above or below the molecule they belong to.

Experiments:
[1] = molecular target: T1, N. denitrificans DsyB (Nisaea denitrificans, UniProt A0A979HMS8); assay: X-ray crystal structure of complex; native MS; assay type: binding
T1 construct: full length, 337 residues (Met1-Glu337), C-terminal His-tag (pET22b), E. coli BL21(DE3); initiator Met mostly cleaved; monomer 37,215 Da predicted; homodimer in solution

[2] = molecular target: T1, N. denitrificans DsyB; assay: X-ray crystal structure of complex; assay type: binding; conditions: DsyB-SAH-MTHB complex; SAM site in C-domain; 1 mM SAH and 1 mM DL-MTHB
[3] = molecular target: Nisaea denitrificans DsyB (Nisaea denitrificans DR41_21 (DSM 18348)); assay: SEC; gel filtration of DsyB in solution; conalbumin (75,000 Da) and ovalbumin (43,000 Da) as markers
[4] = molecular target: Nisaea denitrificans DsyB (Nisaea denitrificans DR41_21 (DSM 18348)); assay: native MS; nondenaturing MS of as-isolated DsyB exchanged into 250 mM ammonium acetate, pH 8.0; dimer region also seen with 25 equivalents of SAM
[5] = substrate: C[S+](CC[C@H](N)C(=O)O)C[C@H]1O[C@@H](n2cnc3c(N)ncnc32)[C@H](O)[C@@H]1O; assay: cells, lysate or membranes named; conditions: 1 mM DL-MTHB, 0-2 mM SAM, 1.97 µM enzyme activated with heat-killed L. aggregata dsyB- lysate fractions, 50 mM Tris-HCl, 100 mM NaCl, pH 8.0, 28 °C
[6] = substrate: CSCCC(O)C(=O)O; assay: GC of DMS released from product by alkali; nonlinear fit; assay type: biochemical, Nisaea denitrificans; conditions: 1 mM SAM, 1.97 µM enzyme activated with heat-killed L. aggregata dsyB- lysate fractions, racemic substrate 0-2 mM, 50 mM Tris-HCl, 100 mM NaCl, pH 8.0, 28 °C

Molecule: C[S+](CC[C@H](N)C(=O)O)C[C@H]1O[C@@H](n2cnc3c(N)ncnc32)[C@H](O)[C@@H]1O (stereo partly shown) [SAM]
- X-ray crystal structure of complex; native MS ([1]; DsyB-SAM complex, SAM bound in chains A-C, not D, 1 mM SAM): three monomers (Chain A, B, and C) of the asymmetric unit contained SAM molecules

Molecule: Nc1ncnc2c1ncn2[C@@H]1O[C@H](CSCC[C@H](N)C(=O)O)[C@@H](O)[C@H]1O [SAH]
- X-ray crystal structure of complex [2]: we solved the crystal structures of complexes of DsyB with SAM and with SAH‐MTHB

- stoichiometry N [3]: 2
- stoichiometry N [4]: 2
Molecule: Nisaea denitrificans DsyB (enzyme)

Molecule: CSCCC(O)C(=O)O (racemic) [MTHB]
- X-ray crystal structure of complex; native MS ([1]; DsyB-SAH-MTHB complex, poor MTHB density, >6 Å from SAH, presumed initial binding site, 1 mM DL-MTHB): the MTHB cosubstrate molecule is located between the C‐domain and the N‐domain

B1: N. denitrificans DsyB (Nisaea denitrificans DSM 18348) (protein)
chain: MTLLTNAEEISDIAFGFMGSKALFAALHHGVFTCLADGPLSVEEMAAATGLHPDRVQTLLTALASLGVVSAVEGRFANSPAAESFLVKGAKYDFGDYLRLQVDRQMYGLLDQIEDAIANNLPDDATSSYADWFSDPEQAKLYSNSQHAGSLGPARGLAKLIDLSGGKKLLDVGGGTGAFAITLCKAFADLAATIVDFPNVAALGKGYVEKAGLSDRIEYVIGDALRTEWPREQDAILMSYLFSGVAGDEHDSLLKRAYDHLVPGGRLLIHDFVVTADRTGPKLAALWQLQHTAFTPEARSLDDEWLAEQLKKTGFTDVKVGPMIPGMTMLAEAVRPE
notes: full length, 337 residues (Met1-Glu337), C-terminal His-tag (pET22b), E. coli BL21(DE3); initiator Met mostly cleaved; monomer 37,215 Da predicted; homodimer in solution
- Km [5]: 160 ± 2 µM
- Km [6]: 140 ± 20 µM
